Measurements from patent publication US20260167699A1 (Chugai, published 2026).
Residue numbers refer to the chain shown, from its start.

B1: GpH7-A5/GpH7-B3 variant E333_02A/GpL16-k0 (antibody, human IgG1, kappa)
heavy 1: not shown
heavy 2: not shown
light: DIVMTQSPLSLPVTPGEPASISCQASESLVHSNRNTYLHWYLQKPGQSPQLLIYKVSNRFSGVPDRFSGSGSGTDFTLKISRVEAEDVGVYYCSQNTHVPPTFGQGTKVEIERTVAAPSVFIFPPSDEQLKSGTASVVCLLNNFYPREAKVQWKVDNALQSGNSQESVTEQDSKDSTYSLSSTLTLSKADYEKHKVYACEVTHQGLSSPVTKSFNRGEC
notes: heterodimerized IgG1 (He Ab), mutation in one H chain only; also called He Ab
B2: GpH7-A5/GpH7-B3 variant I332_02A/GpL16-k0 (antibody, human IgG1, kappa)
heavy 1: not shown
heavy 2: not shown
light: B1 light
notes: as for B1
B3: GpH7-A5/GpH7-B3 variant E333_05P/GpL16-k0 (antibody, human IgG1, kappa)
heavy 1: not shown
heavy 2: not shown
light: B1 light
notes: as for B1
B4: GpH7-A5/GpH7-B3 variant E333_07I/GpL16-k0 (antibody, human IgG1, kappa)
heavy 1: not shown
heavy 2: not shown
light: B1 light
notes: as for B1
B5: GpH7-A5/GpH7-B3 variant E333_16H/GpL16-k0 (antibody, human IgG1, kappa)
heavy 1: not shown
heavy 2: not shown
light: B1 light
notes: as for B1
B6: GpH7-A5/GpH7-B3 variant E333_13S/GpL16-k0 (antibody, human IgG1, kappa)
heavy 1: not shown
heavy 2: not shown
light: B1 light
notes: as for B1
B7: GpH7-A5/GpH7-B3 variant E333_06M/GpL16-k0 (antibody, human IgG1, kappa)
heavy 1: not shown
heavy 2: not shown
light: B1 light
notes: as for B1
B8: GpH7-A5/GpH7-B3 variant I332_05P/GpL16-k0 (antibody, human IgG1, kappa)
heavy 1: not shown
heavy 2: not shown
light: B1 light
notes: as for B1
B9: GpH7-A5/GpH7-B3 variant E333_08L/GpL16-k0 (antibody, human IgG1, kappa)
heavy 1: not shown
heavy 2: not shown
light: B1 light
notes: as for B1
B10: GpH7-A5/GpH7-B3 variant E333_09D/GpL16-k0 (antibody, human IgG1, kappa)
heavy 1: not shown
heavy 2: not shown
light: B1 light
notes: as for B1
B11: GpH7-A5/GpH7-B3 variant I332_06M/GpL16-k0 (antibody, human IgG1, kappa)
heavy 1: not shown
heavy 2: not shown
light: B1 light
notes: as for B1
B12: GpH7-A5/GpH7-B3 variant I332_04F/GpL16-k0 (antibody, human IgG1, kappa)
heavy 1: not shown
heavy 2: not shown
light: B1 light
notes: as for B1
B13: GpH7-A5/GpH7-B3 variant I332_01G/GpL16-k0 (antibody, human IgG1, kappa)
heavy 1: not shown
heavy 2: not shown
light: B1 light
notes: as for B1
B14: GpH7-A5/GpH7-B3 variant E333_14T/GpL16-k0 (antibody, human IgG1, kappa)
heavy 1: not shown
heavy 2: not shown
light: B1 light
notes: as for B1
B15: GpH7-A5/GpH7-B3 variant E333_18N/GpL16-k0 (antibody, human IgG1, kappa)
heavy 1: not shown
heavy 2: not shown
light: B1 light
notes: as for B1
B16: GpH7-A5/GpH7-B3 variant E333_15Y/GpL16-k0 (antibody, human IgG1, kappa)
heavy 1: not shown
heavy 2: not shown
light: B1 light
notes: as for B1
B17: GpH7-A5/GpH7-B3 variant E333_19Q/GpL16-k0 (antibody, human IgG1, kappa)
heavy 1: not shown
heavy 2: not shown
light: B1 light
notes: as for B1
B18: GpH7-A5/GpH7-B3 variant I332_08L/GpL16-k0 (antibody, human IgG1, kappa)
heavy 1: not shown
heavy 2: not shown
light: B1 light
notes: as for B1
B19: GpH7-A5/GpH7-B3 variant E333_03V/GpL16-k0 (antibody, human IgG1, kappa)
heavy 1: not shown
heavy 2: not shown
light: B1 light
notes: as for B1
B20: GpH7-A5/GpH7-B3 variant I332_03V/GpL16-k0 (antibody, human IgG1, kappa)
heavy 1: not shown
heavy 2: not shown
light: B1 light
notes: as for B1
B21: GpH7-A5/GpH7-B3 variant E333_20W/GpL16-k0 (antibody, human IgG1, kappa)
heavy 1: not shown
heavy 2: not shown
light: B1 light
notes: as for B1
B22: GpH7-A5/GpH7-B3 variant E333_12R/GpL16-k0 (antibody, human IgG1, kappa)
heavy 1: not shown
heavy 2: not shown
light: B1 light
notes: as for B1
B23: GpH7-A5/GpH7-B3 variant E333_11K/GpL16-k0 (antibody, human IgG1, kappa)
heavy 1: not shown
heavy 2: not shown
light: B1 light
notes: as for B1
B24: GpH7-A5/GpH7-B3 variant E333_04F/GpL16-k0 (antibody, human IgG1, kappa)
heavy 1: not shown
heavy 2: not shown
light: B1 light
notes: as for B1

Legend:
Test in all cases: SPR; % of GpH7-A5/GpH7-B3/GpL16-k0
[1] = target: T1, FcγRIIa(R) extracellular domain with C-terminal His tag (human, UniProt P12318 34-217)
T1 construct: extracellular domain; R131 allotype; also called 2aR; CD32
T1 sequence: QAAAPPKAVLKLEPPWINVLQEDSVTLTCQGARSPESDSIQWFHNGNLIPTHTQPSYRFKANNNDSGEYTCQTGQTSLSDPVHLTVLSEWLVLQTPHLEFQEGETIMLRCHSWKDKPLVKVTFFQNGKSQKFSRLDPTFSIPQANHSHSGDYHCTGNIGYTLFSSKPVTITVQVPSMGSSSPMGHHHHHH

[2] = target: T2, FcγRIIb extracellular domain with C-terminal His tag (human, UniProt P31994 43-217)
T2 construct: extracellular domain; also called 2b; CD32
T2 sequence: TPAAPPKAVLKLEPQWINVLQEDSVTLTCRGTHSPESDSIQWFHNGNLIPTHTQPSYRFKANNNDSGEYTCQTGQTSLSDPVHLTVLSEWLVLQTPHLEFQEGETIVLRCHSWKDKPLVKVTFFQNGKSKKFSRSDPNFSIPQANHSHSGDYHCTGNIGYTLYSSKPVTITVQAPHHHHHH

[3] = target: T3, FcγRIa extracellular domain with C-terminal His tag (human, UniProt P12314 16-292)
T3 construct: extracellular domain; also called 1a; CD64
T3 sequence (P12314 other isoform, or with tags, fused parts or gaps): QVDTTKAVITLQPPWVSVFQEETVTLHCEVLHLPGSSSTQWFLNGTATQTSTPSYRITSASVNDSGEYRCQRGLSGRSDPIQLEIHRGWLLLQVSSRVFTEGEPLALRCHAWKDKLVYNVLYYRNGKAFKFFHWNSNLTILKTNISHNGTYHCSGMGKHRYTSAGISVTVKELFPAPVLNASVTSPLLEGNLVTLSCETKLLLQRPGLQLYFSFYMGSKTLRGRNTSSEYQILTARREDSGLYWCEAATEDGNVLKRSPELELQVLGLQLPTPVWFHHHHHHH

[4] = target: T4, FcγRIIa(H) extracellular domain with C-terminal His tag (human, UniProt P12318 34-217)
T4 construct: extracellular domain; H131 allotype; also called 2aH; CD32
T4 sequence: T1 sequence with R134H

[5] = target: T5, FcγRIIIa extracellular domain with C-terminal His tag (human, UniProt P08637 17-208)
T5 construct: extracellular domain; also called 3a; CD16
T5 sequence (P08637 other isoform, or with tags, fused parts or gaps): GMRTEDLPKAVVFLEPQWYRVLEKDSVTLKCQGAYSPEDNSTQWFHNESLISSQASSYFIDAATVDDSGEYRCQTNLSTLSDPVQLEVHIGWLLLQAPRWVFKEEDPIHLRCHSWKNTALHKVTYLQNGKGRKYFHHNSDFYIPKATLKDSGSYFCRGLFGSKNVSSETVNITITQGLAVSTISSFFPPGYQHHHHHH

| Binder | He/Con 2aR [1] [%] | He/Con 2b [2] [%] | He/Con 1a [3] [%] | He/Con 2aH [4] [%] | He/Con 3a [5] [%] |
| --- | --- | --- | --- | --- | --- |
| B1 | 128 | 108 | 97.7 | 115 | 108 |
| B2 | 96.9 | 114 | 100 | 115 | 103 |
| B3 | 143 | 126 | 96.9 | 112 | 100 |
| B4 | 142 | 124 | 96.5 | 113 | 100 |
| B5 | 119 | 108 | 95.4 | 114 | 106 |
| B6 | 125 | 106 | 97.6 | 115 | 106 |
| B7 | 132 | 110 | 96.7 | 110 | 100 |
| B8 | 80.5 | 83.7 | 99.2 | 69.9 | 56.3 |
| B9 | 140 | 123 | 96.8 | 116 | 102 |
| B10 | 141 | 122 | 98 | 119 | 115 |
| B11 | 108 | 116 | 105 | 114 | 92.5 |
| B12 | 104 | 115 | 106 | 108 | 89.3 |
| B13 | 92.2 | 96.6 | 102 | 102 | 101 |
| B14 | 135 | 111 | 96.7 | 115 | 100 |
| B15 | 118 | 98.2 | 91.4 | 110 | 76.2 |
| B16 | 137 | 122 | 95.8 | 114 | 101 |
| B17 | 130 | 110 | 93.7 | 113 | 101 |
| B18 | 91 | 91.3 | 104 | 94.9 | 76 |
| B19 | 135 | 120 | 99.4 | 112 | 106 |
| B20 | 87 | 89.5 | 100 | 108 | 85.2 |
| B21 | 132 | 116 | 93.9 | 106 | 104 |
| B22 | 127 | 104 | 96.7 | 110 | 92.2 |
| B23 | 128 | 104 | 96.6 | 112 | 97.7 |
| B24 | 139 | 122 | 96.9 | 116 | 104 |
